Experimental data published in US20060115482A1, “Modifications of histone proteins as indicators of cell proliferation and differentiation” (The Regents of the University of California, priority 2004, published 2006).

Assays:
[1] = tested on: H2B-S33; assay: In vitro kinase assay (γ32P-ATP, SDS-PAGE, autoradiography, scintillation counting); format: biochemical, Drosophila; conditions: for H2B phosphorylation in vitro (qualitative): autoradiography; for Turnover values for phosphorylation of H2B-S33: 3 μg enzyme
Procedure: Kinase reactions were programmed with 1 μg RAP74, 1 μg recombinant histone, 2 μg polynucleosomes, 2 μg histone octamers, or 300 ng histone peptide, and contained 400 ng endogenous TFIID or 250 ng recombinant TAF1 derivatives and 0.25 μCi γ^32P-ATP. Reactions were performed in 20 μl kinase buffer (25 mM Hepes (pH 7.6), 10% glycerol, and 400 mM NaCl) for 25 min at 25° C. Reaction products were analyzed by SDS-PAGE using 8%—(for recombinant proteins), 15%—(for histones), or 18% (for peptides) gels. After electrophoresis, gels were dried and exposed to X-ray film.
To quantify kinase reactions, reactions products were separated by SDS-PAGE and detected by coomassie blue staining. Radiolabeled H2B was detected by autoradiography, excised from the gel, and analyzed by scintillation counting.
To measure the kinase activity of TFIID, TAF1, CTK, and mutant CTK-derivatives, reaction products of in vitro kinase assays were separated by SDS-PAGE and stained with coomassie blue. Radiolabeled H2B, H2BT and controls were excised from the gel and incorporation of radioactivity was determined by scintillation counting. Turnover values for phosphorylation of H2B-S33 were determined by measuring incorporation of radiolabeled phosphate groups into H2B in the presence of 3 μg TAF1, TFIID, or CTK-derivatives and 3 μg H2B or 12 μg nucleosomes. The turnover values were: TFIID (nucleosomes: 3.3/sec; H2B: 2.6/sec); TAF1: (nucleosomes: 2.5/sec; H2B: 2.5/sec); CTK: (nucleosomes: 2.6/sec; H2B: 4.4/sec).

[2] = molecular target: T1, acetylated H4 (Homo sapiens, UniProt P62805); assay: Acetylated-lysine interaction assay; format: binding; conditions: H4 peptide acetylated at lysine 5, 8, 12, 16
T1 construct: H4 peptide (amino acids 1-20); host or cells: H4 peptide made by chemical synthesis; Flag-CTK proteins made in Sf9 cells with baculovirus
Procedure: FIG. 6. (A) Silver stained gel corresponding to the autoradiograms shown inn FIG. 2B) of in vitro kinase assays containing γ^32P-ATP, native nucleosomes (top) or recombinant H2B (bottom), and TFIID, TAF1, or TAF1 derivatives (B) CTK(D1548A) binds acetylated histone H4. Western blot of protein:protein interaction assays. Anti-Flag antibody agarose beads loaded with recombinant Flag-CTK, Flag-CTK(D1548), or FLAG-110 (beads) were incubated with H4 peptide (amino acids 1-20) or H4 peptide [acetyl(H4)] acetylated at lysine 5, 8, 12, 16. Precipitated peptides were separated by SDS-PAGE, electrophoretically transferred onto nitrocellulose, and detected using antibodies to H4 (top) and acetylated H4 (bottom). (C) The CTK phosphorylates serine residues in H2BT. A schematic representation of H2BT is shown on top with highlighted positions of threonines (T) and serines (S). […]
The interaction of CTK and CTK(D1548A) with unmodified and acetylated H4 peptides was monitored as described (14, 15). […]

B1: CTK: COOH-terminal kinase domain of Drosophila TAF1, amino acids 1496-2132 (protein)
chain: LFPVSAKKVPDYYRVVTKPMDLQTMREYIRQRRYTSREMFLEDLKQIVDNSLIYNGPQSAYTLAAQRMFSSCFELLAEREDKLMRLEKAINPLLDDDDQVALSFIFDKLHSQIKQLPESWPFLKPVNKKQVKDYYTVIKRPMDLETIGKNIEAHRYHSRAEYLADIELIATNCEQYNGSDTRYTKFSKKILEYAQTQLIEFSEHCGQLENNIAKTQERARENAPEFDEAWGNDDYNFDRGSRASSPGDDYIDVEGHGGHASSSNSIHRSMGAEAGSSHTAPAVRKPAPPGPGEVKRGRGRPRKQRDPVEEVKSQNPVKRGRGRPRKDSLASNMSHTQAYFLDEDLQCSTDDEDDDEEEDFQEVSEDENNAASILDQGERINAPADAMDGMFDPKNIKTEIDLEAHQMAEEPIGEDDSQQVAEAMVQLSGVGGYYAQQQQDESMDVDPNYDPSDFLAMHKQRQSLGEPSSLQGAFTNFLSHEQDDNGPYNPAEASTSAASGADLGMDASMAMQMAPEMPVNTMNNGMGIDDDLDISESDEEDDGSRVRIKKEVFDDGDYALQHQQMGQAASQSQIYMVDSSNEPTTLDYQQPPQLDFQQVQEMEQLQHQVMPPMQSEQLQQQQTPQGDNDYAWTF
[1]
  H2B phosphorylation in vitro (qualitative): strongly phosphorylated H2B
[1]; substrate 3 μg H2B
  Turnover values for phosphorylation of H2B-S33: 4.4 s⁻¹
[1]; substrate 12 μg nucleosomes
  Turnover values for phosphorylation of H2B-S33: 2.6 s⁻¹

B2: CTK(D1538A): CTK with catalytically important aspartic acid of the S/T-kinase motif mutated to alanine (protein)
chain: LFPVSAKKVPDYYRVVTKPMDLQTMREYIRQRRYTSREMFLEALKQIVDNSLIYNGPQSAYTLAAQRMFSSCFELLAEREDKLMRLEKAINPLLDDDDQVALSFIFDKLHSQIKQLPESWPFLKPVNKKQVKDYYTVIKRPMDLETIGKNIEAHRYHSRAEYLADIELIATNCEQYNGSDTRYTKFSKKILEYAQTQLIEFSEHCGQLENNIAKTQERARENAPEFDEAWGNDDYNFDRGSRASSPGDDYIDVEGHGGHASSSNSIHRSMGAEAGSSHTAPAVRKPAPPGPGEVKRGRGRPRKQRDPVEEVKSQNPVKRGRGRPRKDSLASNMSHTQAYFLDEDLQCSTDDEDDDEEEDFQEVSEDENNAASILDQGERINAPADAMDGMFDPKNIKTEIDLEAHQMAEEPIGEDDSQQVAEAMVQLSGVGGYYAQQQQDESMDVDPNYDPSDFLAMHKQRQSLGEPSSLQGAFTNFLSHEQDDNGPYNPAEASTSAASGADLGMDASMAMQMAPEMPVNTMNNGMGIDDDLDISESDEEDDGSRVRIKKEVFDDGDYALQHQQMGQAASQSQIYMVDSSNEPTTLDYQQPPQLDFQQVQEMEQLQHQVMPPMQSEQLQQQQTPQGDNDYAWTF
[1]
  H2B phosphorylation in vitro (qualitative): weak autophosphorylation and H2B trans-phosporylation activities
[2]
  binding to acetylated H4 in vitro: retains the ability to bind acetylated H4 in vitro
